{"source": "paper PMC6907089", "assay_in_all_cases": "BioID proximity labeling, quantitative mass spectrometry", "settings_in_all_cases": "inducible HEK293 cells; read off a plot", "key": {"AL1A2": {"target": "AL1A2"}, "AP2B1": {"target": "AP2B1"}, "CCD43": {"target": "CCD43"}, "CDKAL": {"target": "CDKAL"}, "CHM4B": {"target": "CHM4B"}, "CKSP2": {"target": "CKSP2"}, "COPA": {"target": "COPA"}, "COPB2": {"target": "COPB2"}, "COPB": {"target": "COPB"}, "COPD": {"target": "COPD"}, "COPE": {"target": "COPE"}, "CPIN1": {"target": "CPIN1"}, "DBLOH": {"target": "DBLOH"}, "DBNL": {"target": "DBNL"}, "DHYS": {"target": "DHYS"}, "EFHD2": {"target": "EFHD2"}, "EIF3D": {"target": "EIF3D"}, "ELP4": {"target": "ELP4"}, "EMC2": {"target": "EMC2"}, "GRWD1": {"target": "GRWD1"}, "ICAL": {"target": "ICAL"}, "N4BP1": {"target": "N4BP1"}, "NHLC2": {"target": "NHLC2"}, "NSF": {"target": "NSF"}, "NSMA3": {"target": "NSMA3"}, "PAPOA": {"target": "PAPOA"}, "RFA2": {"target": "RFA2"}, "RFA3": {"target": "RFA3"}, "S23IP": {"target": "S23IP"}, "SAHH2": {"target": "SAHH2"}, "SEPT9": {"target": "SEPT9"}, "SH3G1": {"target": "SH3G1"}, "SNP29": {"target": "SNP29"}, "SYAP1": {"target": "SYAP1"}, "TBD2B": {"target": "TBD2B"}, "TBPL1": {"target": "TBPL1"}, "TES": {"target": "TES"}, "TXND9": {"target": "TXND9"}, "VRK2": {"target": "VRK2"}, "WDR44": {"target": "WDR44"}, "XIAP": {"target": "XIAP"}, "ZYX": {"target": "ZYX"}, "syntaxin 5 (STX5)": {"target": "syntaxin 5 (STX5) (UniProt Q13190)", "sequence (Q13190 whole entry)": "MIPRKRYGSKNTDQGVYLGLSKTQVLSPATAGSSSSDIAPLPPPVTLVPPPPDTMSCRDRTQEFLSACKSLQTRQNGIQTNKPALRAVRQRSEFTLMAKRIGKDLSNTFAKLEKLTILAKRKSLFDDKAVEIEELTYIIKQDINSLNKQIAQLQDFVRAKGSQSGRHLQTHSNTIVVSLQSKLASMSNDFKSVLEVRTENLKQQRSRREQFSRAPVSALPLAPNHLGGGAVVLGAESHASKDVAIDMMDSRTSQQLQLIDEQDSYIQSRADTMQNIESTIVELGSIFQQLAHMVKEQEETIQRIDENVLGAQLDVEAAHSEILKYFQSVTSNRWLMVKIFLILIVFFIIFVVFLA"}}}
{"substance": "STING R232 (from UniProt Q86WV6) G207E", "values": [{"measurement": "ratio to parent", "setting": "AL1A2", "result": 0.05}, {"measurement": "ratio to parent", "setting": "AP2B1", "result": 0.72}, {"measurement": "ratio to parent", "setting": "CCD43", "result": 0.38}, {"measurement": "ratio to parent", "setting": "CDKAL", "result": 0.2}, {"measurement": "ratio to parent", "setting": "CHM4B", "result": 0.14}, {"measurement": "ratio to parent", "setting": "CKSP2", "result": 0.41}, {"measurement": "ratio to parent", "setting": "COPA", "result": 0.04}, {"measurement": "ratio to parent", "setting": "COPB2", "result": 0.06}, {"measurement": "ratio to parent", "setting": "COPB", "result": 0.1}, {"measurement": "ratio to parent", "setting": "COPD", "result": 0.1}, {"measurement": "ratio to parent", "setting": "COPE", "result": 0.28}, {"measurement": "ratio to parent", "setting": "CPIN1", "result": 0.17}, {"measurement": "ratio to parent", "setting": "DBLOH", "result": 0.26}, {"measurement": "ratio to parent", "setting": "DBNL", "result": 0.24}, {"measurement": "ratio to parent", "setting": "DHYS", "result": 0}, {"measurement": "ratio to parent", "setting": "EFHD2", "result": 0.44}, {"measurement": "ratio to parent", "setting": "EIF3D", "result": 0.31}, {"measurement": "ratio to parent", "setting": "ELP4", "result": 0.75}, {"measurement": "ratio to parent", "setting": "EMC2", "result": 0}, {"measurement": "ratio to parent", "setting": "GRWD1", "result": 0.26}, {"measurement": "ratio to parent", "setting": "ICAL", "result": 0.57}, {"measurement": "ratio to parent", "setting": "N4BP1", "result": 0.41}, {"measurement": "ratio to parent", "setting": "NHLC2", "result": 0.24}, {"measurement": "ratio to parent", "setting": "NSF", "result": 0.57}, {"measurement": "ratio to parent", "setting": "NSMA3", "result": 0.28}, {"measurement": "ratio to parent", "setting": "PAPOA", "result": 0.96}, {"measurement": "ratio to parent", "setting": "RFA2", "result": 0.43}, {"measurement": "ratio to parent", "setting": "RFA3", "result": 0.47}, {"measurement": "ratio to parent", "setting": "S23IP", "result": 0.19}, {"measurement": "ratio to parent", "setting": "SAHH2", "result": 0.2}, {"measurement": "ratio to parent", "setting": "SEPT9", "result": 0.12}, {"measurement": "ratio to parent", "setting": "SH3G1", "result": 0.2}, {"measurement": "ratio to parent", "setting": "SNP29", "result": 0.09}, {"measurement": "ratio to parent", "setting": "SYAP1", "result": 0.5}, {"measurement": "ratio to parent", "setting": "TBD2B", "result": 0.5}, {"measurement": "ratio to parent", "setting": "TBPL1", "result": 0.49}, {"measurement": "ratio to parent", "setting": "TES", "result": 0.72}, {"measurement": "ratio to parent", "setting": "TXND9", "result": 0.53}, {"measurement": "ratio to parent", "setting": "VRK2", "result": 0}, {"measurement": "ratio to parent", "setting": "WDR44", "result": 0.75}, {"measurement": "ratio to parent", "setting": "XIAP", "result": 0.57}, {"measurement": "ratio to parent", "setting": "ZYX", "result": 0.8}, {"measurement": "ratio to parent", "setting": "syntaxin 5 (STX5)", "result": 0.27}]}
{"substance": "STING H232 (wild-type; wt) (from UniProt Q86WV6) G207E", "values": [{"measurement": "ratio to parent", "setting": "AL1A2", "result": 0.39}, {"measurement": "ratio to parent", "setting": "AP2B1", "result": 0.35}, {"measurement": "ratio to parent", "setting": "CCD43", "result": 0.46}, {"measurement": "ratio to parent", "setting": "CDKAL", "result": 0.4}, {"measurement": "ratio to parent", "setting": "CHM4B", "result": 0.41}, {"measurement": "ratio to parent", "setting": "CKSP2", "result": 0}, {"measurement": "ratio to parent", "setting": "COPA", "result": 0.31}, {"measurement": "ratio to parent", "setting": "COPB2", "result": 0.36}, {"measurement": "ratio to parent", "setting": "COPB", "result": 0.35}, {"measurement": "ratio to parent", "setting": "COPD", "result": 0.28}, {"measurement": "ratio to parent", "setting": "COPE", "result": 0.22}, {"measurement": "ratio to parent", "setting": "CPIN1", "result": 0.46}, {"measurement": "ratio to parent", "setting": "DBLOH", "result": 0.48}, {"measurement": "ratio to parent", "setting": "DBNL", "result": 0.47}, {"measurement": "ratio to parent", "setting": "DHYS", "result": 0}, {"measurement": "ratio to parent", "setting": "EFHD2", "result": 0.38}, {"measurement": "ratio to parent", "setting": "EIF3D", "result": 0.23}, {"measurement": "ratio to parent", "setting": "ELP4", "result": 0.38}, {"measurement": "ratio to parent", "setting": "EMC2", "result": 0.48}, {"measurement": "ratio to parent", "setting": "GRWD1", "result": 0.46}, {"measurement": "ratio to parent", "setting": "ICAL", "result": 0}, {"measurement": "ratio to parent", "setting": "N4BP1", "result": 0.27}, {"measurement": "ratio to parent", "setting": "NHLC2", "result": 0}, {"measurement": "ratio to parent", "setting": "NSF", "result": 0.37}, {"measurement": "ratio to parent", "setting": "NSMA3", "result": 0.21}, {"measurement": "ratio to parent", "setting": "PAPOA", "result": 0.4}, {"measurement": "ratio to parent", "setting": "RFA2", "result": 0.32}, {"measurement": "ratio to parent", "setting": "RFA3", "result": 0.34}, {"measurement": "ratio to parent", "setting": "S23IP", "result": 0.39}, {"measurement": "ratio to parent", "setting": "SAHH2", "result": 0.36}, {"measurement": "ratio to parent", "setting": "SEPT9", "result": 0.3}, {"measurement": "ratio to parent", "setting": "SNP29", "result": 0.26}, {"measurement": "ratio to parent", "setting": "SYAP1", "result": 0.41}, {"measurement": "ratio to parent", "setting": "TBD2B", "result": 0.39}, {"measurement": "ratio to parent", "setting": "TES", "result": 0.47}, {"measurement": "ratio to parent", "setting": "TXND9", "result": 0.36}, {"measurement": "ratio to parent", "setting": "VRK2", "result": 0.46}, {"measurement": "ratio to parent", "setting": "WDR44", "result": 0.32}, {"measurement": "ratio to parent", "setting": "XIAP", "result": 0.21}, {"measurement": "ratio to parent", "setting": "ZYX", "result": 0.29}, {"measurement": "ratio to parent", "setting": "syntaxin 5 (STX5)", "result": 0.47}]}
